From patent US20090232787A1, “CARCINOGEN DETOXIFICATION COMPOSITION AND METHOD” (Gene Research Lab. Co., Ltd., priority 2004, published 2009)

Tests used:
[1] = test system: Cytochrome p450 1A1 (CYP1A1); assay: Aryl hydrocarbon hydroxylase (AHH) assay; conditions: cells treated with 9 μM BaP
Method: • 1.1 Cell lines and culture. Two HCC cell lines-Huh 7 (13) and HA22TNGH (14)—and one human hepatoblastoma cell line-Hep G2 (15)—were used in this study. Cells were cultured in Dulbecco's modified Eagle's medium (DMEM, GIBCO BRL, Grand Island, N.Y.) with 10% heat-inactivated fetal bovine serum (HyClone, Logan, Utah), penicillin (100 IU/ml), streptomycin (100 μg/ml), nonessential amino acids (0.1 mM), fungizone ([…]) and L-glutamine (2 mM) in a humidified incubator with 5% CO2. • 1.2 Construction of pGNMT, pGNMT-antisense and pGNMT-His-short plasmids. To construct plasmid-pGNMT containing the CMV promoter and GNMT cDNA fragment, we used plasmid-pFLAG-CMV-5 (Kodak, Rochester, N.Y.) as a vector and the pBluescript-GNMT-9-1-2 phagemid (8) as the PCR template for generating the insert. A 0.9 kb DNA fragment containing the GNMT cDNA sequence and restriction enzyme sites on both ends was amplified. All PCR conditions were as recommended by the manufacturer (Perkin Elmer, Norwalk, Conn.) with two exceptions: 2 mM of MgCl2 and 150 nM of primer. Twenty amplification cycles were performed using Perkin Elmer's Amplitaq Gold Taq DNA polymerase with DNA Thermal Cycler. […] RP concentration was measured with a BCA protein assay (Pierce, Rockford, Ill.); purity was tested by running samples on a 12.5% SDS-polyacrylamide mini-gel (Bio-Rad Laboratories, Richmond, Calif.). • 1.4 Transfection. […]

CYP1A1 gene = conditions: following BaP treatment; preliminary data
lung tumors = type: in vivo; conditions: GNMT-overexpressing transgenic mice, 375 μg B(a)P/7g body weight everyday IP for 15 days, sacrificed 78 weeks after the challenge
Method: • 1.1 pPEPCKex-flGNMT Plasmid Construction: pPEPCKex-flGNMT plasmid was prepared by using a pPEPCKex vector (concluding with phosphoenolpyruvate carboxykinase promoter (PEPCK, Valera et al., 1994), specific expressed in liver and kidney) and pSK-flGNMT (concluding with full length human GNMT cDNA) plasmid. Both plasmids were digested with Not I and Xho I. Insert was ligated to the vector and transformation into the competent cell (JM109). The clones were selected with ampicillin and screened with PCR to check pPEPCKex-flGNMT plasmid (FIG. 1). • 1.2 Production of Transgenic Mice: pPEPCKex-flGNMT plasmid was amplified and digested with Asc I to linear form (4.3 Kb). The linear form pPEPCKex-flGNMT gene was sent into FVB stain mice 0.5 days embryo by pronuclei microinjection. The embryos were sent into the foster mother (ICR strain mice). After 18-21 days, the mice were bred and screened with PCR to check the transgenic mice. • 1.3 Expression human GNMT in liver and kidney of transgenic mice: To check the PEPCK promoter specific expression organ, we used northern blot (FIG. 2) and western blot (FIG. 3). The human GNMT was specific expression in liver and kidney. […]

## GNMT: Glycine N-methyltransferase (EC2.1.1.20), SEQ ID No: 1, SAM-dependent methyltransferase binding benzo(a)pyrene
[1]
  reduction in CYP1A1 enzyme activity in GNMT-expressing cells (SCG2-1-1) compared to SCG2-neg cells: 45%
CYP1A1 gene
  reduction of CYP1A1 gene expression in SCG2-1-1 cells compared to Hep G2 cells: approximately 20%
Lung tumors
  mice that generated lung tumors: 30%
